Results: publication PMC5419422 (Science immunology, 2017)

Biological target: recombinant human HIS-tagged CFP (human, UniProt P27918 28-469)
Experiment: SPR

Chain of recombinant human HIS-tagged CFP (P27918 28-469): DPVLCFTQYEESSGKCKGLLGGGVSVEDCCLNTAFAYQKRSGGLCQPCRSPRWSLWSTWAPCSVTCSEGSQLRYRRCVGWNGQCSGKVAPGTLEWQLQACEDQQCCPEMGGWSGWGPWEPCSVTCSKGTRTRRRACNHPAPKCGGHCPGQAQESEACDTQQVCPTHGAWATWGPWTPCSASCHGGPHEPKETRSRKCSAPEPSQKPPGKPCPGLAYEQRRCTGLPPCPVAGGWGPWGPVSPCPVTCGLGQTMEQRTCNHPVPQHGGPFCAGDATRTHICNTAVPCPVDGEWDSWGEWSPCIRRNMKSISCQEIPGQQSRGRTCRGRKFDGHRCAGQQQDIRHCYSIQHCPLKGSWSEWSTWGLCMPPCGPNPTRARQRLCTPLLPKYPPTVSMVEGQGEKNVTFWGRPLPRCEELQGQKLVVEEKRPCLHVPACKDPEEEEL

binding result: binds
B1: mouse NKp46-Fc (Fc fusion)
chain: QRINTEKETLPKPIIWAKPSIMVTNGNSVNIWCQGAQSASEYQLYFEGSFFALERPKPSRSMNKVRFFISQMTSHTAGIYTCFYQSGELWSKSSNPLKLVVTGLYDTPNLWVYPQPEVTLGENVTFFCQLKTATSKFFLLKERGSNHIQNKYGNIQAEFPMGPVTRAHRGTYRCFGSYNDYAWSFPSEPVTLLITGGVENSSLAPTDPTSSLDYWEFDLSTNESGLQKDSAFWDHTTQN
